Laboratory results from patent US20260022175A1 (Chugai, published 2026).

How the values were obtained:
[1] = target: T1, human CTLA4 (human); test: SPR Biacore T200, 37C, antibody captured, ADP 10 uM;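 further: antibodies held on a Protein G CM3 chip, human CTLA4 as analyte in ACES pH 7.4 buffer, rates from a global 1:1 Langmuir fit, Kd from rates or steady state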
T1 construct: also called hCTLA4; hCTLA4-His-BAP
Procedure: (§1) Biacore T200 was used to measure the binding of the generated antibodies to human CTLA4. 20 mM ACES (pH 7.4), 150 mM NaCl, 2 mM MgCl₂, 0.05% Tween 20 with ATP added to the desired concentration was used as the running buffer, and the assay was performed at 37° C. First, Protein G (CALBIOCHEM) was immobilized onto a Series S Sensor Chip CM3 (GE Healthcare), and the antibodies were captured by interacting an antibody solution prepared in an ATP-free running buffer with the chip. Next, by interacting with a human CTLA4 solution prepared in a running buffer containing ATP to the desired concentration, or a human CTLA4 solution prepared in a running buffer containing no ATP, the binding ability of the antibody to human CTLA4 in the presence or absence of ATP was evaluated. Chips were regenerated with 25 mM NaOH and 10 mM Glycine-HCl (pH 1.5), and assay was performed by repeatedly capturing antibodies. The dissociation constant of each antibody for CTLA4 was calculated using Biacore T200 Evaluation Software 2.0. Specifically, the binding rate constant ka (L/mol/s) and the dissociation rate constant kd (1/s) were calculated by global fitting of the sensorgrams obtained by the measurement, using a 1:1 Langmuir binding model. The dissociation constant KD (mol/L) was calculated from those values. Alternatively, the dissociation constant KD (mol/L) was calculated by the steady state model. In addition, the binding amount of CTLA4 per unit amount of antibody was calculated by correcting the amount of CTLA4 bound as calculated from the sensorgram obtained by the assay with the amount of antibody captured onto the chip surface.
The binding ability of the generated variants to human CTLA4 in the presence of ADP or AMP was evaluated by Biacore T200 and compared with the binding ability in the presence of ATP.

[2] = target: T1, human CTLA4; test: SPR Biacore T200, 37C, antibody captured, no ATP, steady state model
Procedure: Biacore T200 was used to measure the binding of the generated antibodies to human CTLA4. 20 mM ACES (pH 7.4), 150 mM NaCl, 2 mM MgCl₂, 0.05% Tween 20 with ATP added to the desired concentration was used as the running buffer, and the assay was performed at 37° C. First, Protein G (CALBIOCHEM) was immobilized onto a Series S Sensor Chip CM3 (GE Healthcare), and the antibodies were captured by interacting an antibody solution prepared in an ATP-free running buffer with the chip. Next, by interacting with a human CTLA4 solution prepared in a running buffer containing ATP to the desired concentration, or a human CTLA4 solution prepared in a running buffer containing no ATP, the binding ability of the antibody to human CTLA4 in the presence or absence of ATP was evaluated. Chips were regenerated with 25 mM NaOH and 10 mM Glycine-HCl (pH 1.5), and assay was performed by repeatedly capturing antibodies. The dissociation constant of each antibody for CTLA4 was calculated using Biacore T200 Evaluation Software 2.0. Specifically, the binding rate constant ka (L/mol/s) and the dissociation rate constant kd (1/s) were calculated by global fitting of the sensorgrams obtained by the measurement, using a 1:1 Langmuir binding model. The dissociation constant KD (mol/L) was calculated from those values. Alternatively, the dissociation constant KD (mol/L) was calculated by the steady state model.

[3] = target: T1, human CTLA4; test: SPR Biacore T200, 37C, antibody captured, AMP 10 uM
[4] = target: T1, human CTLA4; test: SPR Biacore T200, 37C, antibody captured, ATP 10 uM
[5] = target: T1, human CTLA4; test: as above; remark: listed apart in the source
[6] = target: T1, human CTLA4; test: SPR Biacore T200, 37C, antibody captured, ATP 1 uM
Procedure: as §1

T1 sequence (chain, as listed by the source limits assumed): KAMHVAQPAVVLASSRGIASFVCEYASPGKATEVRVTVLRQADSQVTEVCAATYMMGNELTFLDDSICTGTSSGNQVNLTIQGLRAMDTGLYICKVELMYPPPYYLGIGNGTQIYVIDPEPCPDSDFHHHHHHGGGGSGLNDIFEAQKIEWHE

Row | Binder | Kd [1] [nM] | koff [1] [s⁻¹] | kon [1] [M⁻¹ s⁻¹] | Kd [2] [nM] | Kd [3] [nM] | koff [3] [s⁻¹] | kon [3] [M⁻¹ s⁻¹] | Kd [4] [nM] | Kd [5] [nM] | koff [5] [s⁻¹] | kon [5] [M⁻¹ s⁻¹] | Kd [6] [nM]
1 | 04H1637-G1m/04L1610-lam1 (antibody, human IgG1, lambda) heavy: not shown light: QSALTQPPSASGSPGQSVTISCEGPSTGVGDYNWVHWYQQHPGKAPKLMIYFTSKKPSGVPDRFSGSKSGNTASLTVSGLQAEDEADYYCQTYAAPLGPMFGGGTKLTVLGQPKAAPSVTLFPPSSEELQANKATLVCLISDFYPGAVTVAWKADSSPVKAGVETTTPSKQSNNKYAASSYLSLTPEQWKSHRSYSCQVTHEGSTVEKTVAPTECS | 22 | 0.0035 | 160000 | 3300 | 70 | 0.01 | 150000 | 18 | 15 | 0.0019 | 120000 | 100
2 | 04H1389v373-G1m/04L1086-lam1 (antibody, human IgG1, lambda) heavy: not shown light: QSALTQPPSASGSPGQTVTISCDGPSTGVGDYNYVHWYQQHPGKAPKLMIYFTSKKPSGVPDRFSGSKSGNTASLTVSGLQAEDEADYFCQTYAAPLGPMFGGGTKLTVLGQPKAAPSVTLFPPSSEELQANKATLVCLISDFYPGAVTVAWKADSSPVKAGVETTTPSKQSNNKYAASSYLSLTPEQWKSHRSYSCQVTHEGSTVEKTVAPTECS |  |  |  | 5300 |  |  |  | 28 |  |  |  | 140
3 | 04H1654-G1m/04L1606-lam1 (antibody, human IgG1, lambda, V domains shown) VH: QVQLVESGGGVVQPGGSLRLSCAASGFTFSSKTMNWVRQAPGKGLEWVSSISTQSHYIYYARSVRGRFTISRDNAKNSLYLQMNSLRAEDTAVYYCARYGKREDMLWVFDYWGQGTLVTVSS VL: QSALTQPPSASGSPGQSVTISCQGPSTGVGDYNWVHWYQQHPGKAPKLMIYFTSKKPSGVPDRFSGSKSGNTASLTVSGLQAEDEADYYCQTYAAPLGPMFGGGTKLTVLG | 35 | 0.0028 | 80000 | 6800 | 110 | 0.009 | 81000 | 25 | 21 | 0.0013 | 65000 | 140
4 | 04H1637-G1m/04L1086-lam1 (antibody, human IgG1, lambda) heavy: not shown light: QSALTQPPSASGSPGQTVTISCDGPSTGVGDYNYVHWYQQHPGKAPKLMIYFTSKKPSGVPDRFSGSKSGNTASLTVSGLQAEDEADYFCQTYAAPLGPMFGGGTKLTVLGQPKAAPSVTLFPPSSEELQANKATLVCLISDFYPGAVTVAWKADSSPVKAGVETTTPSKQSNNKYAASSYLSLTPEQWKSHRSYSCQVTHEGSTVEKTVAPTECS |  |  |  | 5300 |  |  |  | 30 |  |  |  | 160

Continued by falling Kd [2], values first:

Row | Kd [1] [nM] | koff [1] [s⁻¹] | kon [1] [M⁻¹ s⁻¹] | Kd [2] [nM] | Kd [3] [nM] | koff [3] [s⁻¹] | kon [3] [M⁻¹ s⁻¹] | Kd [4] [nM] | Kd [5] [nM] | koff [5] [s⁻¹] | kon [5] [M⁻¹ s⁻¹] | Kd [6] [nM] | Binder
5 |  |  |  | 4300 |  |  |  | 28 |  |  |  | 140 | 04H1637-G1m/04L1594-lam1 (antibody, human IgG1, lambda, V domains shown) VH: QVQLVESGGGLVKPGGSLRLSCAASGFTFSSKTMNWVRQAPGKGLEWVSSISTQSHYIYYAESVRGRFTISRDNAKNSLYLQMNSLRAEDTAVYYCARYGKREDMLWVFDYWGQGTLVTVSS VL: QSALTQPPSASGSPGQSVTISCQGPSTGVGDYNWVHWYQQHPGKAPKLMIYFTSKKPKGVPDRFSGSKSGNTASLTVSGLQAEDEADYYCQTYAAPLGPMFGGGTKLTVLG
6 |  |  |  | 3200 |  |  |  | 17 |  |  |  | 89 | 04H1637-G1m/04L1581-lam1 (antibody, human IgG1, lambda, V domains shown) VH: QVQLVESGGGLVKPGGSLRLSCAASGFTFSSKTMNWVRQAPGKGLEWVSSISTQSHYIYYAESVRGRFTISRDNAKNSLYLQMNSLRAEDTAVYYCARYGKREDMLWVFDYWGQGTLVTVSS VL: QSALTQPPSASGSPGQSVTISCQGPSTGVGDYTWVHWYQQHPGKAPKLMIYFTIKKPKGVPDRFSGSKSGNTASLTVSGLQAEDEADYYCQTYAAPLGPMFGGGTKLTVLG
7 |  |  |  | 2800 |  |  |  | 14 |  |  |  | 89 | 04H1643-G1m/04L1610-lam1 (antibody, human IgG1, lambda) heavy: not shown light: QSALTQPPSASGSPGQSVTISCEGPSTGVGDYNWVHWYQQHPGKAPKLMIYFTSKKPSGVPDRFSGSKSGNTASLTVSGLQAEDEADYYCQTYAAPLGPMFGGGTKLTVLGQPKAAPSVTLFPPSSEELQANKATLVCLISDFYPGAVTVAWKADSSPVKAGVETTTPSKQSNNKYAASSYLSLTPEQWKSHRSYSCQVTHEGSTVEKTVAPTECS
8 | 30 | 0.0048 | 160000 | 2300 | 100 | 0.016 | 160000 | 19 | 19 | 0.0022 | 120000 | 95 | 04H1656-G1m/04L1606-lam1 (antibody, human IgG1, lambda, V domains shown) VH: QVQLVESGGGVVQPGGSLRLSCAASGFTFSSKTMNWVRQAPGKGLEWVSSISTQSHYIYYAESVRGRFTISRDNAKNSLYLQMNSLRAEDTAVYYCARYGAREDMLWVFDYWGQGTLVTVSS VL: QSALTQPPSASGSPGQSVTISCQGPSTGVGDYNWVHWYQQHPGKAPKLMIYFTSKKPSGVPDRFSGSKSGNTASLTVSGLQAEDEADYYCQTYAAPLGPMFGGGTKLTVLG
